Measurements: patent US20150175992A1

What was measured:
Assay in all cases: cell-based or functional assay
[1] = molecular target: Bacillus subtilis XynA variant G13Y/I77S/K99Y/T104W/T110A/Y113D/R122F/K154R/N159D/Q175L (Bacillus subtilis) (UniProt P18429)
[2] = molecular target: Bacillus subtilis XynA variant G13Y/K99Y/T104W/T110A/Y113D/N114Y/R122F/K154R/N159D/Q175L (Bacillus subtilis) (UniProt P18429)
[3] = molecular target: Bacillus subtilis XynA variant G13Y/T110A/Y113D/R122D/Q175L (Bacillus subtilis) (UniProt P18429)
[4] = molecular target: Bacillus subtilis XynA variant D11F/R122D/T110A/Y113A (Bacillus subtilis) (UniProt P18429)
[5] = molecular target: Bacillus subtilis XynA variant G13Y/I77Y/K99Y/T104W/T110A/Y113D/R122F/K154R/N159D/Q175L (Bacillus subtilis) (UniProt P18429)
[6] = molecular target: Bacillus subtilis XynA variant G13Y/K99Y/T104W/T110A/Y113D/N114D/R122F/K154R/N159D/Q175K (Bacillus subtilis) (UniProt P18429)
[7] = molecular target: Bacillus subtilis XynA variant G13Y/K99Y/T104W/T110A/Y113D/I118V/R122F/K154R/N159D/Q175L (Bacillus subtilis) (UniProt P18429)
[8] = molecular target: Bacillus subtilis XynA variant D11F/R122D/T110A (Bacillus subtilis) (UniProt P18429)
[9] = molecular target: Bacillus subtilis XynA variant G13Y/K99Y/T104W/T110A/Y113D/N114Y/R122F/K154R/N159D/Q175K (Bacillus subtilis) (UniProt P18429)
[10] = molecular target: Bacillus subtilis XynA variant G13Y/K99Y/T104W/T110A/Y113D/N114D/R122F/K154R/N159D/Q175L (Bacillus subtilis) (UniProt P18429)
[11] = molecular target: Bacillus subtilis XynA variant G13Y/K99Y/T104W/T110A/Y113D/R122F/K154R/N159D/Y166F/Q175L (Bacillus subtilis) (UniProt P18429)
[12] = molecular target: Bacillus subtilis XynA variant G13Y/K99Y/T104W/T110A/Y113D/R122F/K154R/N159D/Q175/V81I (Bacillus subtilis) (UniProt P18429)
[13] = molecular target: Bacillus subtilis XynA variant G13Y/K99Y/T104W/T110A/Y113D/R122F/K154R/N159D/Q175L (Bacillus subtilis) (UniProt P18429)
[14] = molecular target: Bacillus subtilis XynA variant G13Y/I77V/K99Y/T104W/T110A/Y113D/R122F/K154R/N159D/Q175L (Bacillus subtilis) (UniProt P18429)
[15] = molecular target: Bacillus subtilis XynA wildtype xylanase (SEQ ID No. 1) (Bacillus subtilis) (UniProt P18429)
[16] = molecular target: Bacillus subtilis XynA variant G13Y/I77M/K99Y/T104W/T110A/Y113D/R122F/K154R/N159D/Q175L (Bacillus subtilis) (UniProt P18429)
[17] = molecular target: Bacillus subtilis XynA variant G13Y/T110A/Y113D/R122D/S162E/Q175L (Bacillus subtilis) (UniProt P18429)
[18] = molecular target: Bacillus subtilis XynA variant G13Y/K99Y/T104W/T110A/Y113D/R122F/K154R/N159D/Q175K (Bacillus subtilis) (UniProt P18429)
[19] = molecular target: Bacillus subtilis XynA variant G13Y/T110A/Y113D/R122F/Q175L (Bacillus subtilis) (UniProt P18429)
[20] = molecular target: Bacillus subtilis XynA variant G13Y/K99Y/T104W/T110A/Y113D/N114F/R122F/K154R/N159D/Q175L (Bacillus subtilis) (UniProt P18429)
[21] = molecular target: Bacillus subtilis XynA variant G13Y/G34K/T110A/Y113D/R122D/Q175L (Bacillus subtilis) (UniProt P18429)
[22] = molecular target: Bacillus subtilis XynA variant G13Y/T110A/Y113D/R122D/W164F/Q175L (Bacillus subtilis) (UniProt P18429)
[23] = molecular target: Bacillus subtilis XynA variant G13Y/T110A/Y113D/R122D/K154R/N159D/Q175L (Bacillus subtilis) (UniProt P18429)
[24] = molecular target: Bacillus subtilis XynA variant G13Y/I77L/K99Y/T104W/T110A/Y113D/R122F/K154R/N159D/Q175L (Bacillus subtilis) (UniProt P18429)
[25] = molecular target: Bacillus subtilis xylanase variant BS3 (wildtype with D11F/R122D mutations) (Bacillus subtilis) (UniProt P18429)
[26] = molecular target: Bacillus subtilis XynA variant G13Y/T110A/Y113D/R122D/S162D/Q175L (Bacillus subtilis) (UniProt P18429)

**Q.** What does the source list for “crude inhibitor preparation (containing both TAXI and XIP) from wheat (Triticum aestivum) flour”?
**A.** % Activity @ 50 XIU/ml (residual xylanase activity) [1]: 20%; % Activity @ 50 XIU/ml (residual xylanase activity) [2]: 78%; % Activity @ 33.5 XIU/ml (residual xylanase activity) [3]: 50%; % Activity @ 5.6 XIU/ml (residual xylanase activity) [4]: 99%; % Activity @ 50 XIU/ml (residual xylanase activity) [5]: 37%; % Activity @ 50 XIU/ml (residual xylanase activity) [6]: 79%; % Activity @ 50 XIU/ml (residual xylanase activity) [7]: 79%; % Activity @ 5.6 XIU/ml (residual xylanase activity) [8]: 98%; % Activity @ 33.5 XIU/ml (residual xylanase activity) [8]: 100%; % Activity @ 50 XIU/ml (residual xylanase activity) [9]: 84%; % Activity @ 50 XIU/ml (residual xylanase activity) [10]: 79%; % Activity @ 50 XIU/ml (residual xylanase activity) [11]: 68%; % Activity @ 50 XIU/ml (residual xylanase activity) [12]: 46%; % Activity @ 50 XIU/ml (residual xylanase activity) [13]: 64%; % Activity @ 50 XIU/ml (residual xylanase activity) [14]: 45%; % Activity @ 5.6 XIU/ml (residual xylanase activity) [15]: 29%; % Activity @ 50 XIU/ml (residual xylanase activity) [16]: 46%; % Activity @ 50 XIU/ml (residual xylanase activity) [17]: 44%; % Activity @ 50 XIU/ml (residual xylanase activity) [18]: 72%; % Activity @ 50 XIU/ml (residual xylanase activity) [19]: 65%; % Activity @ 50 XIU/ml (residual xylanase activity) [20]: 79%; % Activity @ 50 XIU/ml (residual xylanase activity) [21]: 97%; % Activity @ 50 XIU/ml (residual xylanase activity) [22]: 29%; % Activity @ 50 XIU/ml (residual xylanase activity) [23]: 32%; % Activity @ 50 XIU/ml (residual xylanase activity) [24]: 75%; % Activity @ 5.6 XIU/ml (residual xylanase activity) [25]: 100%; % Activity @ 33.5 XIU/ml (residual xylanase activity) [25]: 100%; % Activity @ 50 XIU/ml (residual xylanase activity) [25]: 95%; % Activity @ 50 XIU/ml (residual xylanase activity) [26]: 40%
